In the Human Domainome abundance scans (Beltran et al. 2025):
± gives the uncertainty stated by the source.

B1: LIM and senescent cell antigen-like-containing domain protein 2, residues 13 to 71; numbered along this chain, Q7Z4I7 (parent)
chain: AVCQRCQARFSPAERIVNSNGELYHEHCFVCAQCFRPFPEGLFYEFEGRKYCEHDFQML

Variants of: B1
Assay: abundance fitness (aPCA) (normalised: wild type 0, dead -1); higher = more abundant; growth selection in yeast, the domain comes from the species named
Settings: Homo sapiens

Variant	abundance fitness
F29E	-0.326 ± 0.12
F29V	-0.083 ± 0.085
F29L	-0.011 ± 0.051
F29H	0.042 ± 0.11
F29P	0.029 ± 0.074
F29T	-0.011 ± 0.077
F29Q	-0.184 ± 0.069
F29K	-0.407 ± 0.089
F29R	-0.141 ± 0.058
F29W	0.008 ± 0.079
F29Y	-0.2 ± 0.11
F29M	0.1 ± 0.077
F29N	-0.175 ± 0.12
F29S	-0.155 ± 0.06
F29I	0.015 ± 0.097
F29C	-0.012 ± 0.097
F29G	-0.019 ± 0.1
F29A	0.207 ± 0.16
P37D	-0.217 ± 0.15
P37F	-0.192 ± 0.11
P37W	-0.371 ± 0.1
P37M	-0.198 ± 0.089
P37A	-0.187 ± 0.088
P37E	0.042 ± 0.11

Variant	abundance fitness
P37K	-0.214 ± 0.097
P37V	-0.193 ± 0.071
P37L	-0.349 ± 0.069
P37S	-0.016 ± 0.066
P37T	-0.148 ± 0.098
P37I	-0.23 ± 0.16
P37G	-0.328 ± 0.08
P37Q	-0.343 ± 0.1
P37Y	-0.14 ± 0.14
P37H	-0.445 ± 0.17
P37C	-0.171 ± 0.096
R36L	-0.176 ± 0.057
R36A	-0.196 ± 0.079
R36C	-0.026 ± 0.094
R36Q	0.063 ± 0.086
R36V	-0.399 ± 0.12
R36S	-0.008 ± 0.064
R36T	-0.268 ± 0.097
R36E	0.01 ± 0.076
R36H	-0.024 ± 0.13
R36P	-0.625 ± 0.14
R36G	-0.064 ± 0.061
R36D	-0.095 ± 0.14
R36W	-0.423 ± 0.095

Variant	abundance fitness
R36K	0.094 ± 0.085
R36N	-0.156 ± 0.12
R36M	-0.042 ± 0.083
R36I	-0.232 ± 0.1
R36Y	-0.515 ± 0.16
R36F	-0.298 ± 0.15
F43H	-0.204 ± 0.15
F43P	-0.042 ± 0.069
F43A	-0.143 ± 0.064
F43M	-0.206 ± 0.086
F43C	-0.223 ± 0.13
F43Y	0.059 ± 0.23
F43E	-0.522 ± 0.087
F43V	-0.132 ± 0.06
F43I	-0.263 ± 0.17
F43T	-0.014 ± 0.065
F43N	-0.387 ± 0.25
F43S	-0.103 ± 0.074
F43L	-0.161 ± 0.059
F43Q	0.103 ± 0.084
F43R	-0.37 ± 0.07
F43K	-0.365 ± 0.084
F43D	-0.69 ± 0.2
G41P	-0.518 ± 0.13

Variant	abundance fitness
G41F	-0.481 ± 0.078
G41H	-0.338 ± 0.079
G41I	-0.733 ± 0.13
G41R	-0.084 ± 0.058
G41N	0.021 ± 0.073
G41C	-0.205 ± 0.055
G41V	-0.613 ± 0.075
G41W	-0.253 ± 0.28
G41M	-0.271 ± 0.15
G41T	-0.268 ± 0.08
G41K	-0.305 ± 0.17
G41S	-0.228 ± 0.054
G41Q	0.096 ± 0.14
G41Y	-0.532 ± 0.07
G41E	-0.612 ± 0.28
G41L	-0.394 ± 0.068
G41A	-0.238 ± 0.066
V30L	-0.021 ± 0.062
V30K	-0.224 ± 0.11
V30H	-0.143 ± 0.18
V30D	-0.798 ± 0.27
V30E	-0.294 ± 0.16
V30W	-0.411 ± 0.13
V30C	-0.11 ± 0.08

Variant	abundance fitness
V30S	-0.114 ± 0.063
V30I	-0.252 ± 0.12
V30F	-0.097 ± 0.092
V30G	-0.233 ± 0.076
V30R	-0.093 ± 0.059
V30M	-0.311 ± 0.1
V30Y	-0.343 ± 0.11
V30N	-0.257 ± 0.14
V30T	-0.065 ± 0.084
V30Q	-0.265 ± 0.13
Q33F	0.285 ± 0.12
Q33L	-0.195 ± 0.071
Q33P	-0.58 ± 0.15
Q33Y	-0.107 ± 0.14
Q33A	0.024 ± 0.065
Q33C	-0.145 ± 0.28
Q33K	-0.092 ± 0.13
Q33N	0.053 ± 0.14
Q33W	-0.206 ± 0.13
Q33V	0.071 ± 0.069
Q33R	-0.077 ± 0.091
Q33M	-0.068 ± 0.082
Q33T	0.012 ± 0.081
Q33S	-0.135 ± 0.076

Variant	abundance fitness
Q33E	0.044 ± 0.1
E26S	-0.051 ± 0.072
E26L	-0.401 ± 0.065
E26I	-0.084 ± 0.17
E26G	-0.353 ± 0.083
E26R	-0.237 ± 0.073
E26D	-0.114 ± 0.19
E26T	-0.164 ± 0.1
E26F	-0.293 ± 0.12
E26W	-0.547 ± 0.14
E26P	-0.294 ± 0.093
E26K	-0.125 ± 0.1
E26Y	-0.115 ± 0.18
E26N	-0.395 ± 0.27
E26C	-0.51 ± 0.21
E26V	0.022 ± 0.068
E26H	-0.082 ± 0.2
E26M	-0.253 ± 0.095
H27V	-0.001 ± 0.31
H27S	-0.227 ± 0.29
H27Q	0.148 ± 0.31
H27A	-0.175 ± 0.25
H27R	-0.016 ± 0.18
H27G	-0.294 ± 0.23

Variant	abundance fitness
H27P	-0.228 ± 0.33
H27F	-0.209 ± 0.43
H27T	-0.227 ± 0.39
F35V	0.112 ± 0.055
F35A	0.077 ± 0.1
F35H	0.224 ± 0.095
F35Y	0.008 ± 0.095
F35M	-0.027 ± 0.08
F35G	0.195 ± 0.081
F35S	0.219 ± 0.06
F35L	0.031 ± 0.05
F35W	-0.076 ± 0.1
F35D	0.153 ± 0.1
F35E	0.144 ± 0.086
F35K	0.204 ± 0.086
F35T	0.072 ± 0.073
F35P	-0.739 ± 0.13
F35C	0.096 ± 0.073
F35I	0.01 ± 0.083
F35Q	-0.014 ± 0.11
F35N	0.147 ± 0.091
C28G	-0.987 ± 0.14
C28S	-0.832 ± 0.13
